Legend:
Test in all cases: cell-based or functional assay
[1] = molecular target: T1, PCBD1-nanoluc-alfa-tag-fusion
T1 chain: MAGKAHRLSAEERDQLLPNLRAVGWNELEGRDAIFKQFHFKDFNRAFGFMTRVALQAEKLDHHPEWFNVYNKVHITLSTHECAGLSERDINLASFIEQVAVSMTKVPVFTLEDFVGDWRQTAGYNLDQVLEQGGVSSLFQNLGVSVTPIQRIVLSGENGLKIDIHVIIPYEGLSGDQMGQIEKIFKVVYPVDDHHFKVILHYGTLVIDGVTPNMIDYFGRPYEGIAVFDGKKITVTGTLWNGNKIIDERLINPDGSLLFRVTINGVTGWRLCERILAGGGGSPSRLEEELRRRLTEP

[2] = molecular target: T2, PYDC2-nanoluc-alfa-tag-fusion
T2 chain: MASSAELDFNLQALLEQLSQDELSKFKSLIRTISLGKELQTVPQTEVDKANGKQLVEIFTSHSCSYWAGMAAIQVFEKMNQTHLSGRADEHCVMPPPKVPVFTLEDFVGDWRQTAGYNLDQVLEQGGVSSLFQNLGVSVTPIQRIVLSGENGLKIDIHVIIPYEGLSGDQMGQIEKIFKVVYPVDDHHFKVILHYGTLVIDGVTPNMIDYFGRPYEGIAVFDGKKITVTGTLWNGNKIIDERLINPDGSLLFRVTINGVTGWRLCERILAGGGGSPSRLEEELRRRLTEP

[3] = molecular target: Shank3-nanoluc-alfa-tag-fusion (Homo sapiens (Human), UniProt Q9BYB0 76-1806)
[4] = molecular target: T3, SYNGAP1-nanoluc-alfa-tag-fusion
T3 chain: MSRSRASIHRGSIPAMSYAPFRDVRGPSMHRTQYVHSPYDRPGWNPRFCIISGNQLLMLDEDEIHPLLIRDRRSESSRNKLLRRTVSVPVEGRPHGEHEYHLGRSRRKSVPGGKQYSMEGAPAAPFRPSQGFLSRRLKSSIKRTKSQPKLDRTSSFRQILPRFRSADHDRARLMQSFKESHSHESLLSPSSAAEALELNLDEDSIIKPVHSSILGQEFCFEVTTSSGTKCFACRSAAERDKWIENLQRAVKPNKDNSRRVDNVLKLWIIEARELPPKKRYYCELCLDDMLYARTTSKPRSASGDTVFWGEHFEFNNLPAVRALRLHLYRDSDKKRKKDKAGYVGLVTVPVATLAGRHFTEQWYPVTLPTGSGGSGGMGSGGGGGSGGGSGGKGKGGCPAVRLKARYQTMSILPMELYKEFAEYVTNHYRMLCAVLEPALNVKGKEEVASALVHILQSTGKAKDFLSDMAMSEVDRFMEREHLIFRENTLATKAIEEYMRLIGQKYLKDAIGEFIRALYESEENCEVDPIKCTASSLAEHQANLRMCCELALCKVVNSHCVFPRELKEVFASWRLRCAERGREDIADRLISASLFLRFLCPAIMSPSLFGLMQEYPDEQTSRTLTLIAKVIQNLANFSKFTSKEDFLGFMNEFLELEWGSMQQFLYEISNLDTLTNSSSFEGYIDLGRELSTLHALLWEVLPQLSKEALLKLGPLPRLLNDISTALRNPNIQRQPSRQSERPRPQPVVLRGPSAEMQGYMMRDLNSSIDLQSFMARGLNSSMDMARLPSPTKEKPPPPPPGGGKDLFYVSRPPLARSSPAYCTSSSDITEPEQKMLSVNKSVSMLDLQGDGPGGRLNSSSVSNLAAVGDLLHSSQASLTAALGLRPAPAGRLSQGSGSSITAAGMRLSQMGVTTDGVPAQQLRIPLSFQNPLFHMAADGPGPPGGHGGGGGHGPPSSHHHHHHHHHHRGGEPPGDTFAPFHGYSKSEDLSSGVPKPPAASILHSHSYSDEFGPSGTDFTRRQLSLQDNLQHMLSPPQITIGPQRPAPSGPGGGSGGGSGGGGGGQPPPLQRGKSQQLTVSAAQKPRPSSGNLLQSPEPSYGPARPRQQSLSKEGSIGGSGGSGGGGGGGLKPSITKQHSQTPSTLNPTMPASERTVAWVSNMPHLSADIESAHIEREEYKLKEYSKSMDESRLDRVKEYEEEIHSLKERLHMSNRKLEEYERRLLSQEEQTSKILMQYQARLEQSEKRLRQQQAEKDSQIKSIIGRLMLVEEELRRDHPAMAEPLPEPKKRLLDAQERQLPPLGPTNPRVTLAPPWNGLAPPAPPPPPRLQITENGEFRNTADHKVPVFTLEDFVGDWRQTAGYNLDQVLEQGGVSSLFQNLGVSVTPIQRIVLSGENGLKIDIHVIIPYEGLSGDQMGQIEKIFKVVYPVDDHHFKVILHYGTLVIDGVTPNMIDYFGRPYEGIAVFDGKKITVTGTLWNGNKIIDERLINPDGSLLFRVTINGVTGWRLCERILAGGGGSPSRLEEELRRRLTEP

[5] = molecular target: T4, CSTB-nanoluc-alfa-tag-fusion
T4 chain: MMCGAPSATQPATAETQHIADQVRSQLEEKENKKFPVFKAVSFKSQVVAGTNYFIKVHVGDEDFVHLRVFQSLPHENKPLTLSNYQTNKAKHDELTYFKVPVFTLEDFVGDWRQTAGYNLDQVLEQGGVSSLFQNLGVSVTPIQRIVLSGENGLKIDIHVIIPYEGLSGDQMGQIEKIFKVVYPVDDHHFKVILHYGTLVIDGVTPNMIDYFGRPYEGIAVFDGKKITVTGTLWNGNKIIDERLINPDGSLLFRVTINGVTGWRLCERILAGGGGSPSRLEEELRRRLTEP

- fold increase in PCBD1 protein expression (NLuc signal normalised to firefly luciferase signal) [1]: 1.13 fold
- fold increase in PYDC2 protein expression (NLuc signal normalised to firefly luciferase signal) [2]: 2.64 fold
- fold increase in SHANK3 protein expression relative to the control (NLuc signal normalised to firefly luciferase signal) [3]: 2.4 fold
- fold increase in SYNGAP1 protein expression relative to the control (NLuc signal normalised to firefly luciferase signal) [4]: 3.1 fold
- fold increase in CSTB protein expression (NLuc signal normalised to firefly luciferase signal) [5]: 1.61 fold
B1: FireflyLuciferase-P2A-a_alfatag_nano-Cezanne (other)
chain: MEDAKNIKKGPAPFYPLEDGTAGEQLHKAMKRYALVPGTIAFTDAHIEVDITYAEYFEMSVRLAEAMKRYGLNTNHRIVVCSENSLQFFMPVLGALFIGVAVAPANDIYNERELLNSMGISQPTVVFVSKKGLQKILNVQKKLPIIQKIIIMDSKTDYQGFQSMYTFVTSHLPPGFNEYDFVPESFDRDKTIALIMNSSGSTGLPKGVALPHRTACVRFSHARDPIFGNQIIPDTAILSVVPFHHGFGMFTTLGYLICGFRVVLMYRFEEELFLRSLQDYKIQSALLVPTLFSFFAKSTLIDKYDLSNLHEIASGGAPLSKEVGEAVAKRFHLPGIRQGYGLTETTSAILITPEGDDKPGAVGKVVPFFEAKVVDLDTGKTLGVNQRGELCVRGPMIMSGYVNNPEATNALIDKDGWLHSGDIAYWDEDEHFFIVDRLKSLIKYKGYQVAPAELESILLQHPNIFDAGVAGLPDDDAGELPAAVVVLEHGKTMTEKEIVDYVASQVTTAKKLRGGVVFVDEVPKGLTGKLDARKIREILIKAKKGGKIAVTRLKGSGATNFSLLKQAGDVEENPGPRSGTGSSGEVQLQESGGGLVQPGGSLRLSCTASGVTISALNAMAMGWYRQAPGERRVMVAAVSERGNAMYRESVQGRFTVTRDFTNKMVSLQMDNLKPEDTAVYYCHVLEDRVDSFHDYWGQGTQVTVSSGAPGSGPPSFSEGSGGSRTPEKGFSDREPTRPPRPILQRQDDIVQEKRLSRGISHASSSIVSLARSHVSSNGGGGGSNEHPLEMPICAFQLPDLTVYNEDFRSFIERDLIEQSMLVALEQAGRLNWWVSVDPTSQRLLPLATTGDGNCLLHAASLGMWGFHDRDLMLRKALYALMEKGVEKEALKRRWRWQQTQQNKESGLVYTEDEWQKEWNELIKLASSEPRMHLGTNGANCGGVESSEEPVYESLEEFHVFVLAHVLRRPIVVVADTMLRDSGGEAFAPIPFGGIYLPLEVPASQCHRSPLVLAYDQAHFSALVSMEQKENTKEQAVIPLTDSEYKLLPLHFAVDPGKGWEWGKDDSDNVRLASVILSLEVKLHLLHSYMNVKWIPLSSDAQAPLAQ
